Laboratory results as given in patent US20240025971A1.

Molecular target: SARS-CoV-2 Wuhan D614G full-length Spike protein (SARS-CoV-2) (UniProt P0DTC2)
Experiment: cell-based or functional assay

## Anti-Nucleocapsid (Neg Control) (antibody)
  Pseudovirus Neutralization: > 50 µg/mL
